Results from patent publication US20060024661A1, “Modulation of CRF potentiation of NMDA receptor currents via CRF receptor 2” (The Regents of the University of California, priority 2003, published 2006).

Key:
[1] = target: CRF receptor 2 (CRF-R2) (mouse) (UniProt Q60748); experiment: cell-based or functional assay
[2] = target: CRF receptor 1 (CRF-R1) (mouse) (UniProt P35347); experiment: cell-based or functional assay
Sequence of CRF receptor 1 (CRF-R1) (mouse) (P35347 24-415): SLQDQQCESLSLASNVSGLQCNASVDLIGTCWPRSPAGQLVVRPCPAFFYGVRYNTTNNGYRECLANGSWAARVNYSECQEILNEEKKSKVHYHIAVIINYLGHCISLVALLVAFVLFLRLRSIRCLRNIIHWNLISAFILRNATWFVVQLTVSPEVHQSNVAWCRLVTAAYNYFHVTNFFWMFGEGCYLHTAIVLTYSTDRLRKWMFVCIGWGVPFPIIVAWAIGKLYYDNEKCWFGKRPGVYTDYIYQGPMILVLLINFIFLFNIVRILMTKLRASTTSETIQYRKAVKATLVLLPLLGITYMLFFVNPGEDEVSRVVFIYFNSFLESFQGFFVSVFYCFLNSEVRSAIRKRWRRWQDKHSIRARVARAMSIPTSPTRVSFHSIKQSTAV

Sequence of CRF receptor 2 (CRF-R2) (mouse) (Q60748 20-411): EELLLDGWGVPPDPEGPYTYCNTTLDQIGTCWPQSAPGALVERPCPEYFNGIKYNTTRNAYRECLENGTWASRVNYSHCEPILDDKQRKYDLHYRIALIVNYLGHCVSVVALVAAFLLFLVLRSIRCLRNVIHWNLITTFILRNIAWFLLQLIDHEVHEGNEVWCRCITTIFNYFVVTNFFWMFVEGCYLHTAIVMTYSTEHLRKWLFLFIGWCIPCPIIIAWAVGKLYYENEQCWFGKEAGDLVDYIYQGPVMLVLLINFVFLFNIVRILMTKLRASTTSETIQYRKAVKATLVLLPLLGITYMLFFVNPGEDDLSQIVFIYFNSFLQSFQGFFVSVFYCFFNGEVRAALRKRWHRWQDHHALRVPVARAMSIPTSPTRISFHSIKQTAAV

NMDAR EPSCs (% of baseline) 15 mins after CRF onset in the presence of 30 nM Antisauvagine-30 [1]	NMDAR-mediated EPSCs (% of baseline) in VTA dopamine neurons, CRF 100 nM, 25 mins after CRF onset [1]	hippocampal CA1 field potentials (% of baseline), CRF 1 µM plus 3 µM CP-154,526 (selective CRF-R1 antagonist, small molecule) [2]	hippocampal CA1 field potentials (% of baseline), CRF 1 µM, 15 mins after CRF onset [2]	Substance
114%				Antisauvagine-30 (peptide)
	128%	82.9%	143%	human/rat corticotrophin-releasing factor (CRF) (from UniProt P06850 154-194) (peptide)
